# Source: patent publication US12673985B2, “Method for the treatment or prophylaxis of cancer by targeting the extracellular portion of keratin 14 (KRT14) residing on cancer cells” (Hudson Institute of Medical Research, priority 2019, dated 2026)
# “Also recorded” adds a separate entry of the source.
# Legend:
# [1] = tested on: SW620 colorectal carcinoma; assay: In vitro wound repair assay; type: cell-based; conditions: antibody 1 μg/ml; 16 hours
# Protocol: (§1) In vitro wound repair assay. Ovarian cancer cells (or other cancer cell lines—BT16, NCI-H1573, AN3CA, SW620 and MDA-MB-468) were grown in complete medium to confluency in a 12-well plate, then serum-starved overnight to synchronize at G0. The following day cell culture medium was removed, and cell monolayers were wounded by scraping with a pipette tip attached to suction. Non-adherent cells were removed by gentle washes with PBS, and complete growth medium with or without mAb AN-17 (1 μg/ml) or commercial KRT14 polyclonal antibody (1 μg/ml) was replaced. The wound area was imaged under a phase microscope (Leica) at regular intervals ranging from 0-72 h. Wound closure was measured in image series using AnalySIS LS Research Software (Olympus) to determine the area of the wound on each day. Experiments were repeated in triplicate with at least six wound areas observed per growth condition.
# (§2) In vitro wound repair assays were conducted using AN3CA endometrial carcinoma and SW620 colorectal carcinoma lines. Cells were grown in complete medium to confluency in a 12-well plate, then serum-starved overnight to synchronize at G0. The following day cell culture medium was removed, and cell monolayers were wounded by scraping with a pipette tip attached to suction. […] Wound closure was measured in image series using AnalySIS LS Research Software (Olympus) to determine the area of the wound on each day. […]
# [2] = tested on: AN3CA endometrial carcinoma; assay: In vitro wound repair assay; type: cell-based; conditions: antibody 1 μg/ml; 16 hours
# Protocol: as §1, §2
# [3] = tested on: Murine ID8 ovarian tumour; assay: Treatment of established primary ID8 ovarian tumours in syngeneic mouse model; type: in vivo, C57BL/6 mice; conditions: 5 mg/kg i.p. bi-weekly for 3 weeks
# Protocol: Mice with primary tumours (n=10/group) received mAb AN-17 at 5 mg/kg by intraperitoneal injection bi-weekly, for a period of 3 weeks. Control animals received an equivalent dose of isotype-matched control IgG kappa antibody (Control Group 1); or and equivalent volume of vehicle (PBS) alone (Control Group 2). Following 3 weeks of bi-weekly treatment (Mondays and Thursdays), all mice were culled and assessed for tumour size and weight. Two additional, non-tumour bearing animals were used as non-surgical controls.
# KRT14+ cells = assay: Flow cytometry for KRT14+ cell populations in ovarian cancer cells; type: cell-based, human and murine; conditions: mAb AN-17 1:200
# Protocol: (§3) Flow cytometry was carried out according to standard protocols (PMID: 30602661), with data acquired using a BD LSRFortessa X-20 (BD Biosciences) and analysed using FlowJo software v10.5.0 (BD Biosciences). Samples assessed for KRT14+ cell populations included OVCAR3, CAOV4, ID8 mouse ovarian cancer cells, ascites-derived ovarian cancer cells derived from a clinical specimen (designated #3.1937-07) and cardiac blood from a mice bearing 12-week old epithelial ovarian tumours. For cell lines, 1×10^6 cells per cell line were incubated with either mAb AN-17 (1:200 dilution) or a commercially available anti-KRT14 polyclonal antibody (Sigma SAB4501657; 1:50 dilution) as a positive control for 45 mins in non-immune serum at room temperature. The secondary antibodies, goat anti-mouse Alexa647 (mAb AN-17) or goat anti-rabbit IgG Alexa 488 (commercial Ab), were diluted 1:500 and incubated for 30 minutes. For blood samples, 2×10^6 cells were incubated with an Alexa Fluor®488-conjugated mAb AN-17 antibody for 45 minutes. Following PBS washes, cells were resuspended in PBS/2% FBS data was acquired using a BD LSRFortessa X-20 (BD Biosciences) flow cytometer.
# KRT14+ CTCs = assay: Flow cytometry detection of circulating tumour cells in blood of mice bearing ID8 iRFP720+ epithelial ovarian tumours; type: cell-based; conditions: confirmed by iRFP720+ status
# Protocol: as §3
# Expression of extracellular KRT14 also marks the circulating tumour cell (CTC) population.
molecule,measurement,setting,value
"mAb AN-17: monoclonal anti-KRT14 antibody; heavy chain variable region SEQ ID NO:3, light chain variable region SEQ ID NO:5 (clone AN-17A RG4.E5b.A7.B4) (antibody, listed as Mus musculus, V domains shown) VH: QVQLKESGPGLVAPSQSLSITCTVSGFSLSRYSVHWVRQPPGKGLEWLGMIWGGGSTDYNSALKSRLSISKDNSKSQVFLKMNSLQTDDTAMYYCARKDYGYSYFDYWGQGTTLTVSS VL: DVLMTQTPLSLPVSLGDQASISCRSSQSIVHSNGNTYLEWYLQKPGQSPKLLIYKVSNRFSGVPDRFSGSGSGTDFTLKISRVEAEDLGVYYCFQGSHVPFTFGSGTKLEIKRADAAPTVS","wound closure / migration, SW620",[1],failed to close the wound; also recorded: impaired
same,"wound closure / migration, AN3CA",[2],failed to close the wound; also recorded: impaired
same,adverse effects during treatment,[3],had no observable adverse effects on animals; also recorded: no adverse effects noted during the treatment period
same,primary ovarian tumours at cull / tumour progression,[3]; n=10/group,no tumours could be identified; also recorded: complete regression
same,detection of KRT14+ cells by flow cytometry compared to Sigma SAB4501657,KRT14+ cells,comparable sensitivity
same,identification of circulating tumour cells from whole blood,KRT14+ CTCs,able to detect and isolate KRT14+ CTCs
same,identification of circulating tumour cells from whole blood,KRT14+ CTCs; listed as mAB AN-17,able to correctly identify iRFP+ cells from whole blood
